For orientation: Kd means the equilibrium constant for the complex coming apart. A low value points to a tighter complex.

The test deals with p53 DBD 94-288 (Homo sapiens, UniProt P04637). The test can be described thus: atomic force spectroscopy.
Sequence of p53 DBD 94-288 (P04637 94-288): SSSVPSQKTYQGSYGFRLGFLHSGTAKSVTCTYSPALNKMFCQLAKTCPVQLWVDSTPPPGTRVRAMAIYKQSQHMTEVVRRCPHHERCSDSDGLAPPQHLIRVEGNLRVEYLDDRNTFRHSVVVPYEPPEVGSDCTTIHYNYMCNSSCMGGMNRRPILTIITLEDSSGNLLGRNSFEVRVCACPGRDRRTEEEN

B1: p28 (azurin fragment, Cys-p28) 50-77 (peptide)
chain: TVNLSHPGNLPKNVMGHNWVLSTAADMQ
As for B1, the Kd was 630 nM.

The record behind these values is PMC3230568 (2011).
